Test results: patent publication US20200262898A1 (INTEGRAL MOLECULAR, published 2020)

T1: CD81 (UniProt P60033 1-236, limits assumed)
T1 construct: whole, on cells
T1 sequence (looked up): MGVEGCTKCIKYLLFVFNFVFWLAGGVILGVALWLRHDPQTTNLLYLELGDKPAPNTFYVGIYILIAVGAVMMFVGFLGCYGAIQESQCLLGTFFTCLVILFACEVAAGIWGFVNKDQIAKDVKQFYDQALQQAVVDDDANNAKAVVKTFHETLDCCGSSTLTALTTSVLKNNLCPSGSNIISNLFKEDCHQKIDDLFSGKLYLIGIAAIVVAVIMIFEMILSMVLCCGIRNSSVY

T2: CD151 (UniProt P48509 1-253, limits assumed)
T2 construct: whole, on cells
T2 sequence (looked up): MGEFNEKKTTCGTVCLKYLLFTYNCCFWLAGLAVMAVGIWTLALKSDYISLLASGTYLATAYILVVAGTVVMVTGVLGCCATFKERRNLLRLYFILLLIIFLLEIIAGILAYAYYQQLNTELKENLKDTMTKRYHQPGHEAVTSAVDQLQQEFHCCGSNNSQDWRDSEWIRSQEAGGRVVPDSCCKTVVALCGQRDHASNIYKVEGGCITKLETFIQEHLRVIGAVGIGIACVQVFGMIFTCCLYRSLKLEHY

T3: IGSF8 (UniProt Q969P0 28-613, limits assumed)
T3 construct: whole, on cells
T3 sequence (looked up): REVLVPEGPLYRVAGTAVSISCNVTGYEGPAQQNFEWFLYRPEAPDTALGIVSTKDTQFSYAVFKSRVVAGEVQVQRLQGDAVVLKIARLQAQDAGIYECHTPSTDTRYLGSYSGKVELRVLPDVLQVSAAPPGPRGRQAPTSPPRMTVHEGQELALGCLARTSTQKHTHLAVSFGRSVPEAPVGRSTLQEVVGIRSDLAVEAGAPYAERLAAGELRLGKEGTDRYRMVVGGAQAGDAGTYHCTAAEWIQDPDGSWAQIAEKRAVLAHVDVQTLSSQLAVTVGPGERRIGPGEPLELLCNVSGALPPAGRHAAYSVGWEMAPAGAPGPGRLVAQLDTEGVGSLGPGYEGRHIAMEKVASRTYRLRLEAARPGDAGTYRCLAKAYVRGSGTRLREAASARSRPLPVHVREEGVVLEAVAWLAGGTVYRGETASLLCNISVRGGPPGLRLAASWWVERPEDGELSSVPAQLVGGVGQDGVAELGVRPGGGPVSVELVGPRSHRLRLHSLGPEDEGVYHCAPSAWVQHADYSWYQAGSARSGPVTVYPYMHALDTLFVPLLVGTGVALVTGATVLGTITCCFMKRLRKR

B1: Antibody of light chain E1 (E1chicken) paired with the heavy chain against CD81 (antibody, V domains shown)
VH: AVTLDESGGGLQTPGGALSLVCKASGFSIGDYNMGWVRQAPGKGLEWVAGIDAGGGTWRATAVKGRATISRDNGQSTVRLQLNNLRAEDTATYFCAKSTDSSANCCANSIDAWGHGTEVIVSS
VL: ALTQPSSVSANPGETVKITCSGSSGSGYYGWYQQKSPGSAPVTLIYDNDKRPSDIPSRFSGSKSGSTGTLTITGVQADDEAVYFCGSADNNYTGIFGAGTTLTVL
notes: also called HC-CD81
B2: Antibody of light chain D3 (D3chicken) paired with the heavy chain against CD63 (antibody, V domains shown)
VH: AVTLDESGGGLQTPGGALSLVCKASGFTFSDRGMHWVRQAPGKGLEWVAGIRSTGSFTLYGAAVKGRATISRDDGQSTLRLQLNNLRAEDTGTYYCAKSAGGYGCGRGWCGVDDIDAWGHGTEVIVSS
VL: ALTQPSSVSANPGETVKITCSGDDRWYGWYQQKSPGSAPVTLIYSNDKRPSDIPSRFSGSKSGSTGTLTITGVQADDEAVYFCGSRDSSYAGIFGAGTTLTVL
notes: also called HC-CD63
B3: Antibody of light chain E1 (E1chicken) paired with the heavy chain against CD63 (antibody, V domains shown)
VH: B2 VH
VL: B1 VL
notes: also called HC-CD63
B4: Antibody of light chain D3 (D3chicken) paired with the heavy chain against CD81 (antibody, V domains shown)
VH: B1 VH
VL: B2 VL
notes: also called HC-CD81
B5: Antibody of common light chain B9 (B9chicken) paired with the heavy chain against CD151 (antibody, V domains shown)
VH: AVTLDESGGGLQMPGGALSLVCKASGFTFSSYGMEWVRQAPGKGLEWVAGISSGGGSTDYGTAVKGRATISRDNGQSTVRLQLNNLRAEDTGTYFCAKSAYGGTWDGDDIDAWGHGTEVIVSS
VL: ALTQPSSVSANPGETVKITCSGGGSSNYYGWYQQKSPGSAPVTLIYGTNKRPSDIPSRFSGSKSGSTGTLTITGVQADDEAVYFCGSADSSTNAGIFGAGTTLTVL
notes: also called HC-CD151
B6: Antibody of common light chain C11 (C11chicken) paired with the heavy chain against CD151 (antibody, V domains shown)
VH: B5 VH
VL: ALTQPSSVSANPGETVKITCSGGGSWYGSYYYGWYQQKSPGSAPVTLIYNNDKRPSDIPSRFSGSESGSTATLTITGVQAEDEAVYFCGGYDSTTTDMFGAGTTLTVL
notes: also called HC-CD151
B7: Antibody of common light chain B9 (B9chicken) paired with the heavy chain against CD63 (antibody, V domains shown)
VH: B2 VH
VL: B5 VL
notes: also called HC-CD63
B8: Antibody of common light chain B9 (B9chicken) paired with the heavy chain against CD147 (antibody, V domains shown)
VH: AVTLDESGGGLQTPGGGLSLVCKASGFTFSSYAMYWVRQAPGKGLQWVAGISRDGSSGRYGAAVKGRATISRDNGQSTVRLQLNNLRAEDTATYFCAKSGYGDYTSADEIDAWGHGTEVIVSS
VL: B5 VL
notes: also called HC-CD147
B9: Antibody of light chain E1 (E1chicken) paired with the heavy chain against CD151 (antibody, V domains shown)
VH: B5 VH
VL: B1 VL
notes: also called HC-CD151
B10: Antibody of common light chain B9 (B9chicken) paired with the heavy chain against CD81 (antibody, V domains shown)
VH: B1 VH
VL: B5 VL
notes: also called HC-CD81
B11: Antibody of light chain D3 (D3chicken) paired with the heavy chain against CD151 (antibody, V domains shown)
VH: B5 VH
VL: B2 VL
notes: also called HC-CD151
B12: Antibody of common light chain B9 (B9chicken) paired with the heavy chain against IGSF8 (antibody, V domains shown)
VH: AVTLDESGGGLQTPGGGLSLVCKASGFSISSYEMQWVRQAPGKGLEWVAGIDDDGSSRAYAPAVKGRATISRDNGQSTVRLQLNNLRAEDTGTYYCAKTIYAATLNAGEIDAWGHGTEVIVSS
VL: B5 VL
notes: also called HC-IGSF8
B13: Antibody of common light chain C11 (C11chicken) paired with the heavy chain against IGSF8 (antibody, V domains shown)
VH: B12 VH
VL: B6 VL
notes: also called HC-IGSF8
B14: Antibody of light chain D3 (D3chicken) paired with the heavy chain against IGSF8 (antibody, V domains shown)
VH: B12 VH
VL: B2 VL
notes: also called HC-IGSF8
B15: Antibody of common light chain C11 (C11chicken) paired with the heavy chain against CD147 (antibody, V domains shown)
VH: B8 VH
VL: B6 VL
notes: also called HC-CD147
B16: Antibody of common light chain C11 (C11chicken) paired with the heavy chain against CD81 (antibody, V domains shown)
VH: B1 VH
VL: B6 VL
notes: also called HC-CD81
B17: Antibody of light chain E1 (E1chicken) paired with the heavy chain against IGSF8 (antibody, V domains shown)
VH: B12 VH
VL: B1 VL
notes: also called HC-IGSF8
B18: Antibody of common light chain C11 (C11chicken) paired with the heavy chain against CD63 (antibody, V domains shown)
VH: B2 VH
VL: B6 VL
notes: also called HC-CD63

biological target: T4, Fc-binding protein (the ZZ domain of ProA); experiment: flow cytometry on cells expressing the Fc-binding ZZ domain on their surface; given as a measure of expression
T4 construct: domain: ZZ domain of ProA; the construct is not described
Source text: (§1) Antibodies were generated using the common light chains B9, F10, C11, and H11 paired with 8 different heavy chains. […] Binding is expressed as Signal:Background for binding to the molecular target of the heavy chain antibody (listed at top of Table 4). Expression is based on binding to cells expressing an Fc-binding protein (the ZZ domain of ProA) (ZZ) on their surface, enabling total antibody to bind and be measured. Detection was using flow cytometry with cells transfected to express the target protein. Background binding S:B is normalized to 1.0, using mock-transfected cells as background. The data in the table below illustrate that the light chains can be used with a variety of heavy chains and the antibody generated from a VH that can bind to the light chains B9 and F10 will function and bind to the target of interest.

Row | S:B Expression | Binder
1 | 1.7 S:B | B1
2 | 3.9 S:B | B2
3 | 24.4 S:B | B3
4 | 1.8 S:B | B4
5 | 9.7 S:B | B5
6 | 11.5 S:B | B6
7 | 11.3 S:B | B7
8 | 17 S:B | B8
9 | 11.3 S:B | B9
10 | 10.8 S:B | B10
11 | 6.5 S:B | B11
12 | 12.7 S:B | B12
13 | 12 S:B | B13
14 | 3.2 S:B | B14
15 | 16.6 S:B | B15
16 | 9.8 S:B | B16
17 | 2 S:B | B17
18 | 8.8 S:B | B18

biological target: T1, CD81; experiment: flow cytometry on cells transfected with the target; signal over mock-transfected cells (background = 1.0)
Source text: as §1

Row | S:B Binding | Binder
19 | 1.5 S:B | B1
20 | 1.2 S:B | B4
21 | 0.6 S:B | B10
22 | 30.9 S:B | B16

biological target: T5, CD63 (UniProt P08962 2-238, limits assumed); experiment: as above
T5 construct: whole, on cells
Source text: as §1

Row | S:B Binding | Binder
23 | 20.6 S:B | B2
24 | 31.8 S:B | B3
25 | 2.7 S:B | B7
26 | 0.8 S:B | B18

biological target: T2, CD151; experiment: as above
Source text: as §1

Row | S:B Binding | Binder
27 | 27.4 S:B | B5
28 | 1.4 S:B | B6
29 | 28.8 S:B | B9
30 | 47.5 S:B | B11

biological target: T3, IGSF8; experiment: as above
Source text: as §1

Row | S:B Binding | Binder
31 | 1.7 S:B | B12
32 | 5.5 S:B | B13
33 | 19.4 S:B | B14
34 | 18.1 S:B | B17
